How the values were obtained:
[1] = patients treated with PRRT; cited from earlier work
[2] = test system: ^177Lu-octreotide PRRT kidney damage mouse model; experiment: Short-term radioprotection of kidneys with A1M in PRRT (^177Lu-octreotide PRRT kidney damage mouse model)
Description: NB, ^177Lu-DOTATATE and A1M are injected separately at T=0. Analytic Methods:
The mice were left for 1 day or 8 days, and then sacrificed with sampling of plasma and urine, as described above.

[3] = SDS-PAGE / Western blotting of injected non-labelled A1M in kidneys and serum; assay type: in vivo, NMRI mice
Description: SDS-PAGE analysis was performed on kidneys and serum from animals that had been injected i.v. with non-labeled A1M (100 μl/animal, 1.5 mg/ml). Animals were terminated at 10, 20 and 60 minutes post-injection, blood and kidneys were sampled and kidneys were washed and placed in 1 ml PBS. Following mechanical tissue homogenization, tissue was centrifuged at 10,000×g for 10 minutes and supernatant was transferred to a new tube and used for further analysis as describe below. Serum was obtained from the blood samples by centrifugation at 1,000×g for 10 minutes. SDS-PAGE gels were run under reducing conditions and the separated proteins were transferred to polyvinylidene difluoride (PVDF) membranes (Immobilon-P, Millipore, Bedford, Mass., USA) using Trans-Blot Turbo transfer system (Bio-Rad, Delaware, USA). […] The membranes were developed using a ChemiDoc MP Imaging system (BioRad).

[4] = mouse, in vivo, iv
Description: Organ-specific uptake values were calculated as percent injected activity per gram of tissue (% IA/g) or percent injected activity (% IA).

[5] = from blood stream; cited from earlier work
[6] = Immunohistochemistry and confocal fluorescence microscopy of A1M and octreotide-647 in kidney sections; parameters: species or system mice; settings: mouse, in vivo
Description: However, only wild-type data are included. After euthanization, kidneys were removed directly frozen and embedded in Tissue Tec. […] Serial sectioning was performed, collecting 3-4 sections per slide, of which adjacent slides were used for either chromogen immunohistochemistry (IHC) or immunofluorescence (IF) labeling. Sections were post-fixed in 4% paraformaldehyde (PFA, Sigma, St. Louis, Mo., USA, dissolved in PBS, 0.1 M, pH 7.4) for 15 minutes, and rinsed in PBS two times for 5 minutes. For single labeling of […], sections were incubated with 0.03% hydrogen peroxide (H2O2, Merck, Darmstadt, Germany) for five minutes for chromogen visualization (IHC). For both chromogen and fluorescence visualization sections were incubated with 1% bovine serum albumin (BSA, Sigma, St. Louis, Mo., USA; diluted in PBS) for 30 minutes. Sections were then incubated with rabbit anti-human […] […] The choices of optical sections and scan depths were determined from the centre position of the majority of nuclei (DAPI labeling) in the scanned field. Sequential scanning was performed of channels displaying AF488, HiLyte Fluor 647, DAPI and Texas Red fluorescence. For each channel the renal profile with the highest fluorescence intensities was selected as a reference, from which the acquisition settings (laser power, PMT detector gain, digital offset) were optimized and used for all scanned areas. […]

[7] = in vivo, iv

| Molecule | creatinine clearance loss [1] | plasma creatinine levels (marker of GFR) versus control ([2]; 150 MBq, after 1 and 8 days) | albumin concentrations in urine (proteinuria) versus control ([2]; 150 MBq, after 1 and 8 days, more pronounced after 1 day) | state of A1M found in blood and kidneys ([3]; 10, 20 and 60 minutes post-injection, 150 μg A1M i.v.) | time of highest amounts of A1M in kidneys and serum ([3]; Western blot, 10, 20 and 60 minutes post-injection) | time post-injection up to which A1M is intact, full-length ([3]; kidneys, i.v. injection) | maximum of injected substance found per gram kidney tissue [4] | time of maximum (peak) uptake in the kidneys post-injection [4] | T½ of transport across the vessel walls to the extravascular compartment [5] | GFR (plasma creatinine) on simultaneous infusion of A1M ([2]; 150 μg A1M + 150 MBq 177Lu-DOTATATE, 1 and 8 days, highly significant after 8 days (P<0.01)) | proteinuria (urine albumin) on simultaneous A1M-treatment, after 1 day ([2]; 150 μg A1M + 150 MBq 177Lu-DOTATATE, 1 day) | significantly reduced proteinuria (urine albumin) on simultaneous A1M-treatment, after 8 days ([2]; 150 μg A1M + 150 MBq 177Lu-DOTATATE, 8 days) | fluorescence detection in kidney at 4 hours p.i. [6] | uptake in the kidneys (biodistribution) [4] | fraction of i.v. administered substance localized in kidneys [7] |
| --- | --- | --- | --- | --- | --- | --- | --- | --- | --- | --- | --- | --- | --- | --- | --- |
| C[C@@H](O)[C@H](NC(=O)[C@@H]1CSSC[C@H](NC(=O)[C@@H](Cc2ccccc2)NC(=O)CN2CCN(CC(=O)[O-])CCN(CC(=O)[O-])CCN(CC(=O)[O-])CC2)C(=O)N[C@@H](Cc2ccc(O)cc2)C(=O)N[C@H](Cc2c[nH]c3ccccc23)C(=O)N[C@@H](CCCCN)C(=O)N[C@@H]([C@@H](C)O)C(=O)N1)C(=O)O.[177Lu+3] [^177Lu-DOTATATE, ^177Lu-DOTA0, Tyr3]octreotate, reference compound] | 3.8 % per year | significantly increased | significantly elevated |  |  |  |  |  |  |  |  |  |  |  |  |
| α1-microglobulin (protein, listed as Homo sapiens, Recombinant human A1M expressed in E. coli) MHHHHHHHHGGGGGIEGRGPVPTPPDNIQVQENFNISRIYGKWYNLAIGSTCPWLKKIMDRMTVSTLVLGEGATEAEISMTSTRWRKGVCEETSGAYEKTDTDGKFLYHKSKWNITMESYVVHTNYDEYAIFLTKKFSRHHGPTITAKLYGRAPQLRETLLQDFRVVAQGVGIPEDSIFTMADRGECVPGEQEPEPILIPR |  |  |  | intact, full-length | 10 min | ≥ 60 min | 76% | 10 min | 2 to 3 min | restored the GFR to control levels | significantly reduced | not | significant decrease |  |  |
| ^125I-A1M: Recombinant human A1M radiolabelled with 125I using the chloramine T method (protein, UniProt P02760 20-203, looked up, Alpha-1-microglobulin 125I radiolabel) Alpha-1-microglobulin: GPVPTPPDNIQVQENFNISRIYGKWYNLAIGSTCPWLKKIMDRMTVSTLVLGEGATEAEISMTSTRWRKGVCEETSGAYEKTDTDGKFLYHKSKWNITMESYVVHTNYDEYAIFLTKKFSRHHGPTITAKLYGRAPQLRETLLQDFRVVAQGVGIPEDSIFTMADRGECVPGEQEPEPILIPRV |  |  |  |  |  |  |  | 20 min |  |  |  |  |  | High uptake | > 30% |

Reference: patent US10960048B2, “Alpha-1-microglobulin for use in the protection of kidneys in radionuclide therapy” (Guard Therapeutics International AB, priority 2015, dated 2021)
